Reference: patent US20220120736A1, “METHODS AND ASSAYS FOR MODULATING GENE TRANSCRIPTION BY MODULATING CONDENSATES” (Whitehead Institute for Biomedical Research, priority 2018, published 2022)

Test system: WNT-responsive reporter gene
Assay: Luciferase assay with synthetic WNT-reporter (10 copies of TCF/LEF motif)
Format: cell-based
Conditions: overexpression in HEK293T cells
Protocol: (FIG. 56A) Schematic of the ChIP experiment. TdTomato-tagged wild type or aromatic mutant β-catenin were stably integrated in mES cells under a doxycycline-inducible promoter. Doxycycline was added to the media 24 hours prior to crosslinking. ChIP was preformed using antibodies against TdTomato. TRE=Tetracycline responsive element. (FIG. 56B) (Top) ChIP-qPCR of ectopically-expressed wild type or aromatic mutant β-catenin at Myc, Sp5, and Klf4 enhancers. Error bars indicate standard deviation of three replicates. Stars indicate p-values obtained by a t-test <0.05. (Bottom) RT-qPCR of mRNA levels after ectopic expression of wild type or aromatic mutant β-catenin of Myc, Sp5, and Klf4. Error bars indicate standard deviation of three replicates. Stars indicate p-values obtained by a t-test <0.05. (FIG. 56C) Luciferase assay using a synthetic WNT-reporter containing 10 copies of the consensus TCF/LEF motif were wild type or aromatic mutant β-catenin was overexpressed in HEK293T cells. Average of 3 biological replicates is shown. Error bars show the standard deviation. Star indicates p-value obtained by a t-test <0.05.
We independently tested the ability of the β-catenin aromatic mutant to transactivate a WNT-responsive reporter gene in a luciferase assay with wild type and mutant forms of β-catenin (FIG. 56C).

increase in luciferase activity: 8 fold
B1: wild type β-catenin: wild type β-catenin overexpressed in HEK293T cells (protein, UniProt P35222 2-781, looked up)
Catenin beta-1: ATQADLMELDMAMEPDRKAAVSHWQQQSYLDSGIHSGATTTAPSLSGKGNPEEEDVDTSQVLYEWEQGFSQSFTQEQVADIDGQYAMTRAQRVRAAMFPETLDEGMQIPSTQFDAAHPTNVQRLAEPSQMLKHAVVNLINYQDDAELATRAIPELTKLLNDEDQVVVNKAAVMVHQLSKKEASRHAIMRSPQMVSAIVRTMQNTNDVETARCTAGTLHNLSHHREGLLAIFKSGGIPALVKMLGSPVDSVLFYAITTLHNLLLHQEGAKMAVRLAGGLQKMVALLNKTNVKFLAITTDCLQILAYGNQESKLIILASGGPQALVNIMRTYTYEKLLWTTSRVLKVLSVCSSNKPAIVEAGGMQALGLHLTDPSQRLVQNCLWTLRNLSDAATKQEGMEGLLGTLVQLLGSDDINVVTCAAGILSNLTCNNYKNKMMVCQVGGIEALVRTVLRAGDREDITEPAICALRHLTSRHQEAEMAQNAVRLHYGLPVVVKLLHPPSHWPLIKATVGLIRNLALCPANHAPLREQGAIPRLVQLLVRAHQDTQRRTSMGGTQQQFVEGVRMEEIVEGCTGALHILARDVHNRIVIRGLNTIPLFVQLLYSPIENIQRVAAGVLCELAQDKEAAEAIEAEGATAPLTELLHSRNEGVATYAAAVLFRMSEDKPQDYKKRLSVELTSSLFRTEPMAWNETADLGLDIGAQGEPLGYRQDDPSYRSFHSGGYGQDALGMDPMMEHEMGGHHPGADYPVDGLPDLGHAQDLMDGLPPGDSNQLAWFDTDL
